Assay: soluble on expression in E. coli; label from the status in PepcDB or PDB records

Sequence	soluble on expression in E. coli
MSNVSSETVNLNNTSIVHMNMSNVTKLTASNYIMWSRQVHALLHGYGLTQYLDATKAAPAREITVNDVASVNPEYEAWSRQDQLIFSALIGTLSLTVQPTVSRAATSADVWATLAGTYAKPSRGHIKQLQHQIKQWKKDTRTIDEYVQGFINRFDQLALIGKIIDHEDQVDYILGGLPEDYKPIVDQMEGRDTPPNGCLTNSCDEDGCFIQMALNSV	soluble
MAHHHHHHMAPQFYLGLQMSAIIAAIPDITRAHSAVEVSEMTDLLRAGVTPYARMLDDEDFNEEFVFGMYGMALDSWQRASYEEMTKKYHLALTAIHEAINPPFKLEHFQRITRLVLARAEHVPPADYYSGHLFLRRLRRRWRRLRKIPEPAQVALVPYVDLVNHSNRPNCTIRIGPSSVLSGESAITLFTLRDVLPGQELCRHYNFALNRASALFRYGFLPFDLISIVEHDAVDEHVMKSRDMFRAVSEEQLEHQRREAEEVARLEKLFQDAKQSHGGSGAAASTPPGRQPNPSLSDRVSRREE	not soluble
MGNKICQFKLVLLGESAVGKSSLVLRFVKGQFHEFQESTIGAAFLTQTVCLDDTTVKFEIWDTAGQERYHSLAPMYYRGAQAAIVVYDITNEESFARAKNWVKELQRQASPNIVIALSGNKADLANKRAVDFQEAQSYADDNSLLFMETSAKTSMNVNEIFMAIAKKLPKN	soluble
SILATPILIPENQRPPFPRSVGKVIRSEGTEGAKFRLSGKGVDQDPKGIFRINEISGDVSVTRPLDREAIANYQLEVEVTDLSGKIIDGPVRLDISVIDQNDNRPMFKEGPYVGHVMEGSPTGTTVMRMTAFDADDPSTDNALLRYNILKQTPTKPSPNMFYIDPEKGDIVTVVSPVLLDRETMETPKYELVIEAKDMGGHDVGLTGTATATILIDD	soluble
MSVPDKFFGRYQLDKSENFDEFLSSKGVNWFVRQMIKLAGLTKIISQNQEAGKYNMENLTSKKNTNYQAWELGKKFEAPGLDGNQHEITFDFKDEILSEHHIRLNEPETSAETYFYTIDDQNQLVMRMENNGIVCRRWFKRVEQK	not soluble
MLKFENVTKSFKDGNRNIEAVKDTNFEINKGDIIALVGPSGSGKSTFLTMAGALQTPTSGHILINNQDITTMKQKALAKVRMSEIGFILQATNLVPFLTVKQQFTLLKKKNKNVMSNEDYQQLMSQLGLTSLLNKLPSEISGGQKQRVAIAKALYTNPSIILADEPTAALDTENAIEVIKILRDQAKQRKKACIIVTHDERLKAYCDRSYHMKDGVLNLENETVE	not soluble
LAAGPALSARGYLALNGQTPAGCSLMEWQNDNNGRQRWCVRLVQGGGFAGPLFDGFDNLYVGQPGAIISFPPTQWTRWRQPVIGMPSTPRFLGHGRLLVSTHLGQLLVFDTRRGMVVGSPVDLVDGIDPTDATRGLADCAPARPGCPVAAAPAFSSVNGTVVVSVWQPGEPAAKLVGLKYHAEQLVREWTSDAVSAGVLASPVLSADGSTVYVNGRDHRLWALNAADGKAKWSAPLGFLAQTPPALTPHGLIVSGGGPDTALAAFRDAGDHAEGAWRRDDVTALSTASLAGTGVGYTVISGPNHDGTPGLSLLVFDPANGHTVNSYPLPGATGYPVGVSVGNDRRVVTATSDGQVYSFAP	not soluble
MDKKTACAHVAEPCEFSYSTRDAIIYALGVGARAKEDLCYVYENHEDFKVLPSYIVAPGFQAHTLMDWPGVEFDLQRVLHGEQYIEVYQPLSAEGKLKSEARVVDILDKGSGALILGNVTTYDENGKKIAMQQFSTFQTGSGNFGGDRTSPHEIKAATVPDRAPDAVIEQKTTVDQAALYRLGSGDMNPLHVDPEFAKMSGFKTPILHGLCSLGFATRHVIAAWAGNDSDKFKAIKVRFSSPVLPGQTLVTETWKNGKRIIFQMKVKETGKIVISNAFIDLHEASELPTVPIDLASKL	not soluble
MPYPFKLPDLGYPYEALEPHIDAKTMEIHHQKHHGAYVTNLNAALEKYPYLHGVEVEVLLRHLAALPQDIQTAVRNNGGGHLNHSLFWRLLTPGGAKEPVGELKKAIDEQFGGFQALKEKLTQAAMGRFGSGWAWLVKDPFGKLHVLSTPNQDNPVMEGFTPIVGIDVWEHAYYLKYQNRRADYLQAIWNVLNWDVAEEFFKKA	soluble
MSLAHAQMEMPPRSLGAVIEQAEAQEAPILLEVYAPWCPYCQRMQENVYADAEVRSYLDRRFTYARLNRDTTGGTHRFNGRTLSSKELGMALGARGVPTTVFMKPDGTPIAKQPGYIKRPVFLQMLRYFGSGAYEEQSFEAFRARASEGHHHHHH	not soluble
CPEIEAQGNECLKEYGGDVGFGFCAPRIFPTICYTRCRENKGAKGGRCRWGQGSNVKCLCDFCGDTPQ	soluble
MKNLIAELLFKLAQKEEESKELCAQVEALEIIVTAMLRNMAQNDQQRLIDQVEGALYEVKPDASIPDDDTELLRDYVKKLLKHPCQ	not soluble
LKVSEPAPKGFLIIGANDVARQVGLAIAKYDCRVVVTDSNWDYIRQARMTGLEHYYGNPISSHAEDYLNLIGIGHVLALSPDKHFNIMACMQFLSDFGDKRVFCLNDNPTNNVSEKHLVAQEYHGLPFLGGEVSYKKLASLVGQGAEVKHTKLS	not soluble
MTQGAVKTTGKRSRAVSAKKKAILSAALDTFSQFGFHGTRLEQIAELAGVSKTNLLYYFPSKEALYIAVLRQILDIWLAPLKAFREDFAPLAAIKEYIRLKLEVSRDYPQASRLFCMEMLAGAPLLMDELTGDLKALIDEKSALIAGWVKSGKLAPIDPQHLIFMIWASTQHYADFAPQVEAVTGATLRDEVFFNQTVENVQRIIIEGIRPR	soluble
MAIKGLEQAVENLSRISRTAVPGAAAMAINRVASSAISQSASQVARETKVRRKLVKERARLKRATVKNPQARIKVNRGDLPVIKLGNARVVLSRRRRRKKGQRSSLKGGGSVLVVGNRRIPGAFIQQLKNGRWHVMQRVAGKNRYPIDVVKIPMAVPLTTAFKQNIEQIRRERLPKELGYALQHQLRMVIKR	not soluble
MGWHFQQSVTMPSEWRTLALESDDSYNDFTVIMRRKLQENQVNVVNLEQNIPILRINKQITSDQVASIFKHGREAEKLLMLEVEATFRLANGESYPINAKVNRTFFDNARAALAKSEEREVIWNDMREQVARQLIVKIIALQNQIKRKLEHHHHHH	soluble
MSLKTKFGKCIYISPSGYKVYQNLLYRWLTLGSEAWQTVINRYIPRRPGLHYLQILTLMARKFPNDCCLLGLGGAGIAHLLGAQKTIRSIVAVESSEEVIQIAKKFFMTDLIPHFTITHQNARDFVRENKKTFQHMLLDLYDATHFPDECHSMDFFIHCKKQLTDDGFLAVNLANSQEQWALVQLIKKQFPSNIIIPIKKCANIVVIASKNDNKDLFIKQVRNTNEIKKITWVKDWGYVAEYEGHHHHHH	not soluble
PAVLELEGKKWRVENQENVSNLVIEDTELKQVAYIYKCVNTTLQIKGKINSITVDNCKKLGLVFDDVVGIVEIINSKDVKVQVMGKVPTISINKTDGCHAYLSKNSLDCEIVSAKSSEMNVLIPTEGGDFNEFPVPEQFKTLWNGQKLVTTVTEIAG	soluble
KSVYLQSPYFIPDNSYINAIKIAAKSGVDVHLMIPCKPDHPLVYWATFSNASDLLSSGVKIYTYENGFIHSKMCLIDDEIVSVGTANMDFRSFELNFEVNAFVYDENLAKDLRVAYEHDITKSKQLTKESYANR	not soluble
GPGSMNYEGHLKGHRGWVTSLACPQQAGSYIKVVSTSRDGTAISWKANPDRHSVDSDYGLPNHRLEGHTGFVSCVSLAHATDYALTASWDRSIRMWDLRNGQCQRKFLKHTKDVLAVAFSPDDRLIVSAGRDNVIRVWNVAGECMHEFLRDGHEDWVSSICFSPSLEHPIVVSGSWDNTIKVWNVNGGKCERTLKGHSNYVSTVTVSPDGSLCASGGKDGAALLWDLSTGEQLFKINVESPINQIAFSPNRFWMCVATERSLSVYDLESKAVIAELTPDGAKPSECISIAWSADGNTLYSGHKDNLIRVWSISDAE	soluble
QITGIETGFYDFDKLITGLHEDQLIVLAARPAMGKTALALNIAQNVATKSNKAVAVFSLEMGAESLVERMLSAEGTIINHHIRTGNLTVNEWQRLIYAQGQLAEAPIFIDDTAGVKITDIRARARRLSQETDGLGLIVIDYLQLIQGSRSDNRQQEVSEISRQLKIIAKELKVPVIALSQLSRGVEQRNDKRPIMSDL	not soluble
GSMKTIKVKNKTEGSKVAFRMLEEEITFGAKTLGLATGSTPLELYKEIRESHLDFSDMVSINLDEYVGLSADDKQSYAYFMKQNLFAAKPFKKSYLPNGLAADLAKETEYYDQILAQYPIDLQILGIGRNAHIGFNEPGTAFSSQTHLVDLTPSTIAANSRFFEKAEDVPKQAISMGLASIMSAKMILLMAFGEEKAEAVAAMVKGPVTEEIPASILQTHPKVILIVDEKAGAGI	soluble
MGSDKIHHHHHHMSQPVWPNFYIIGAVKSGTTSLYAYLRQHPQVFLPAMKEPHFFTQPHPSPEQRHWIQYVGNVEQYQQLYRGAERFPRIGDASPSYLWCEEAPERIHAVQPDARIIVILRDPVQRAHAQYLMDFNEGVLDLPFVEALQRDWTRPDKGWGISQLYVELGRYTAQIMRYQQQFGAGQVHVCLLEDLKKNPLAVLEDIADFLEIDRGPLHDMDLETVHNVHRLPRGNWARQLASGHISRYIGEHLFPRTWGEFVWRNVFLREGRKPPMDAEARSFLQAIYTPEIERLEQLLGRPLPELRISWKFSEPAGQSLSTALPPKPSGNR	not soluble
EETAKEVMTSRLDMVDLEINTPYSDVLKCIVENAYSRIPVYAESRDNIKGILYIKDLLPHLGKGDNFRWQTLVRPAYFVPETKMIDDLLRDFQANKIHIAIVVDEFGGTSGIVTMEDIIEEIVGEINDEYDD	soluble
MHIVIVGAGAVGGFFGGLLHESGTKVTFVARGKSLDALQRRGMRLHDASGVRDIRVPVVEDLSHVPDADVVILATKTLGSVDVPKNLPKSAVLVTTQNSVEMPHIAVEALGVDRVIPGVVRSFLTKRGPAEAEFSGGIFTFTFGCMSEATRGIVDKLAHVLDRAGIEPVVHPAIMTDIWFKAMFVTCFGALGALVNQPLGVVRTTYRDDFKALINEVVTAGQAHGVDFPEDVVDRVLAFADAQPKGATSSMQRDLANGLPSELDAQAGAVVRMAQRVGVDARLHHLVGNVLSHKHSD	soluble
MPVFKRYMRSPRLKAKHVMSTPPVTIEVGRSIAEAARLMAERGVGSLIVVDKQGLVKGILTERDIINSLASGKACAEGKVEDIMSRNPIVASPDDDLEIIIEKMRDMNIRHIPVIDEDGRPLGMISVRDIIDLGVSALKLFVE	soluble
GMADLTHEFWDRLEDVRSGMLGIKGQGRLIPMSPQTDDDAPGAIWFITAKGTDLAKGVAAGPQPAQFVVSDDGEGLYADLDGTLERSTDREALDEFWSFVADAWFDGGQHDPDVCLLKFTPASGEISITEGGGARFLYEIAKAHLTDETPDMGEQATVTF	soluble
MGHHHHHHHHHHSSGHIEGRHMLGLGASDFEFGVDPSADPELALALRVSMEEQRQRQEEEARRAAAASAAEAGIATTGTEDSDDALLKMTISQQEFGRTGLPDLSSMTEEEQIAYAMQMSLQGAEFGQAESA	soluble
TSKINWNISVNATTYKNKILTLPEEKRESGIWNGIFKMVEGGSYYDYYIKEWAGVDPEDGKAMWYKDVTDKNGNTTKETTKTYSEATDYKAGCALPDLYGGISTSLNAYGFDFSIALTYQLGGQGYDYTYATLMNSAQGAGTNYHNDILNAWTPENKYTDVPKLNAKESNNNSTSTRFLTSTSYLSLQNISVGYTLPKNWIAKLGCESLRVYFVADNVALLSARKGYDPRTNWNGESNYNYSALRSISGGITMKF	not soluble

— the DeepSol protein solubility set
